Experiment: observed amide hydrogen exchange rate constant kobs (stretched exponential fit, FD-normalized) (s^-1); higher = faster H/D exchange (less protection)
Conditions: pH 3 (pH read); temperature: 20 °C; D2O: 88%
How it was run: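 Jurkat tryptic peptides (LysC/trypsin, carbamidomethylated cysteines) were labeled in 88% D2O, pHread 3, 20 °C, quenched with 0.23% formic acid at 13 times from 18 to 93,600 s, in processing triplicates. MS1 uptake (Q-Exactive HF, HDExaminer, no back-exchange correction) was normalized to full-deuteration controls (24 h, 37 °C). Curves were fitted to a stretched single exponential with β = 0.8. The observed exchange rate constant kobs is the fitted rate.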

| Substance | observed amide hydrogen exchange rate constant kobs |
| --- | --- |
| DIFQEIFDK | 0.00131 |
| DLADELALVDVIEDK | 0.00109 |
| DLPLLLFR | 0.000629 |
| DLSHIGDAVVISCAK | 0.00192 |
| DLSLEEIQK | 0.00108 |
| DLSTIEPLK | 0.000669 |
| DLTDYLMK | 0.00113 |
| DNLTLWTSDMQGDGEEQNK | 0.00177 |
| DNSTMGYMMAK | 0.00115 |
| DQIYDIFQK | 0.000729 |
| DQLIYNLLK | 0.000541 |
| DQQEAALVDMVNDGVEDLR | 0.00161 |
| DQVANSAFVER | 0.00108 |
| DRPFFAGLVK | 0.000655 |
| DRPFFPGLVK | 0.000625 |
| DRVTDALNATR | 0.000789 |
| DSPSVWAAVPGK | 0.000933 |
| DSTLIMQLLR | 0.000608 |
| DSYVGDEAQSK | 0.00207 |
| DTGIFLDLMHLK | 0.00141 |
| DVIEEYFK | 0.00131 |
| DVLFLK | 0.000617 |
| DVNAAIATIK | 0.000675 |
| DVNVNFEK | 0.00146 |
| DYFGAHTYELLAK | 0.00186 |
| DYFLFR | 0.00105 |
| DYNVTANSK | 0.00116 |

| Substance | observed amide hydrogen exchange rate constant kobs |
| --- | --- |
| EAEAAIYHLQLFEELRR | 0.00102 |
| EAFSLFDK | 0.0018 |
| EAILDIITSR | 0.0013 |
| EALQDVEDENQ | 0.0022 |
| EAMEDGEIDGNK | 0.0032 |
| EANNFLWPFK | 0.000958 |
| EDAANNYAR | 0.0026 |
| EDLHDMLASLGK | 0.00199 |
| EDQTEYLEER | 0.00222 |
| EDSQRPGAHLTVK | 0.00212 |
| EDSVKPGAHLTVK | 0.00181 |
| EESGKPGAHVTVK | 0.00233 |
| EFEPLLNWMK | 0.000734 |
| EFHLNESGDPSSK | 0.00132 |
| EGGLGPLNIPLLADVTR | 0.000844 |
| EGIPALDNFLDKL | 0.00119 |
| EGIPPDQQR | 0.00171 |
| EGLELPEDEEEK | 0.00262 |
| EGMNIVEAMER | 0.00123 |
| EGVHGGLINKK | 0.0019 |
| EIAEAYLGK | 0.00148 |
| EIIDLVLDR | 0.00103 |
| EILVGDVGQTVDDPYATFVK | 0.00102 |
| EIQTAVR | 0.001 |
| EISLWFKPEELVDYK | 0.000892 |
| EITALAPSTMK | 0.000944 |
| EIVLADVIDNDSWR | 0.00114 |

| Substance | observed amide hydrogen exchange rate constant kobs |
| --- | --- |
| EKPYFPIPEEYTFIQNVPLEDR | 0.000754 |
| ELGIWEPLAVK | 0.000742 |
| ELISNASDALDK | 0.00184 |
| ELISNSSDALDK | 0.00235 |
| ELLDLLYK | 0.000866 |
| ELLPEIR | 0.0016 |
| ELQEMDKDDESLIK | 0.00203 |
| ELSDFISYLQR | 0.000898 |
| EMLQQSK | 0.00166 |
| ENALVQMADGNQAQLAMSHLNGHK | 0.00127 |
| EQFLDGDGWTSR | 0.00231 |
| EQGVLSFWR | 0.00106 |
| EQVANSAFVER | 0.00104 |
| ESKDPADETEAD | 0.00321 |
| ESTGAQVQVAGDMLPNSTER | 0.00119 |
| ESTLHLVLR | 0.00129 |
| ESVPEFPLSPPK | 0.00083 |
| ESYSVYVYK | 0.000648 |
| ETIEQEK | 0.00152 |
| EVDEQMLNVQNK | 0.00132 |
| EVFEDAAEIR | 0.002 |
| EVFSMAGVVVR | 0.00144 |
| EVLAGR | 0.00244 |
| EVSTYIK | 0.000877 |
| EVTPEGLQMVK | 0.000799 |
| EVVEEAENGR | 0.00211 |

— the supplement of paper PMC11875167
